Residue numbers refer to the chain shown, from its start.
B1: PSA146/HLA-A*02:01-specific scFv phage clone #15 (scFv, V domains shown)
VH: QVQLVQSGAEVKKPGSSVKVSCKASGGTFSSYAISWVRQAPGQGLEWMGRIIPILGIANYAQKFQGRVTITADKSTSTAYMELSSLRSEDTAVYYCARVSQPVYGSSTYDIWGQGTLVTVSS
VL: QAVLTQPPSASGTPGQRVTISCSGRSSNLGSNSVNWYQQVPGTAPKLLIFDNHQRPSGVPDRFSGSKSGTSASLAISGLRSEDETDYYCAAWDDSLNSVVFGGGTKLTVLG
B2: PSA146/HLA-A*02:01-specific scFv phage clone #17 (scFv, V domains shown)
VH: QMQLVQSGAEVKKPGESLKISCKGSGYSFTSYWIGWVRQMPGKGLEWMGIIYPGDSDTRYSPSFQGQVTISADKSISTAYLQWSSLKASDTAMYYCARLVVPDAFDIWGQGTMVTVSS
VL: QSVVTQPPSVSAAPGQKVTISCSGSSSNIGNNYVSWYQQLPGTAPKLLIYDNYKRPSGIPDRFSGSKSGTSATLGITGLQTGDEADYYCGTWDSSLSAGVFGGGTKLTVLG
B3: PSA146/HLA-A*02:01-specific scFv phage clone #18 (scFv, V domains shown)
VH: QVQLVQSGAEVKKPGESLKISCKGSGYSFTSYWIGWVRQMPGKGLEWMGIIYPGDSDTRYSPSFQGQVTISADKSISTAYLQWSSLKASDTAMYYCARWGSRGFLDAFDIWGQGTMVTVSS
VL: B2 VL with K17R, T43A, K46R, Y53D, A98S

The binders below were run against T1, Bio-P19 member A2E-8 (chain 2 (heavy): C-terminal BirA substrate peptide, biotinylated there by BirA; tag letters not given, left out) (assay: phage ELISA, streptavidin plate, anti-M13-HRP).
T1 construct: also called biotinylated control peptide A2E-8/HLA-A*02:01 monomer; not shown: BirA substrate peptide (BSP) tag at the C-terminus of the heavy chain
Method: (§1) Individual phage clones from enriched phage display panning pools against PSA146/HLA-A*02:01 complex were incubated in the coated plates. Binding of the phage clones was detected by HRP-conjugated anti-M13 antibodies and developed using HRP substrate. The absorbance was read at 450 nm. […] Then, unique antibody clones were identified through DNA sequencing of ELISA-positive clones. […] T2 cells loaded with different peptides and β2M were first stained with purified scFv phage clones, followed by staining with a mouse anti-M13 mAb, and finally R-PE conjugated horse anti-mouse IgG from Vector Labs. Each step of the staining was performed for between 30-60 minutes on ice and the cells were washed twice between stainings. All 16 clones recognized PSA146-loaded T2 cells specifically. FIG. 3 provides examples of PSA146/HLA-A*02:01 specific phage clone binding to peptide-loaded T2 cells through FACS.

Q: Does B1 bind?
A: Result: no binding

Q: Does B2 bind?
A: Result: no binding

Q: Does B3 bind?
A: Result: no binding

The binders below were run against T2, Bio-P19 member A2E-19 (chain 2 carries a C-terminal BirA substrate peptide (BSP), enzymatically biotinylated; the BSP letters are not given in the patent and are left out) (assay: phage ELISA, streptavidin plate, anti-M13-HRP).
T2 construct: also called biotinylated control peptide A2E-19/HLA-A*02:01 monomer
Method: as §1

Q: Does B1 bind?
A: Result: no binding

Q: Does B2 bind?
A: Result: no binding

Q: Does B3 bind?
A: Result: no binding

The binders below were run against T3, Bio-P19 member A2E-13 (chain 2: C-terminal BirA substrate peptide (BSP), enzymatically biotinylated; its letters are not printed in the patent and it is left out) (assay: phage ELISA, streptavidin plate, anti-M13-HRP).
T3 construct: also called biotinylated control peptide A2E-13/HLA-A*02:01 monomer
Method: as §1

Q: Does B1 bind?
A: Result: no binding

Q: Does B2 bind?
A: Result: no binding

Q: Does B3 bind?
A: Result: no binding

The binders below were run against T4, Bio-P19 member A2E-6 (chain 2 carries a C-terminal BirA substrate peptide (BSP), enzymatically biotinylated; the BSP letters are not given in the patent and are left out) (assay: phage ELISA, streptavidin plate, anti-M13-HRP).
T4 construct: also called biotinylated control peptide A2E-6/HLA-A*02:01 monomer
Method: as §1

Q: Does B1 bind?
A: Result: no binding

Q: Does B2 bind?
A: Result: no binding

Q: Does B3 bind?
A: Result: no binding

These binders were tested against T5, Bio-P19 member A2E-11 (chain 2: C-terminal BirA substrate peptide (BSP), enzymatically biotinylated; its letters are not printed in the patent and it is left out) (assay: phage ELISA, streptavidin plate, anti-M13-HRP).
T5 construct: also called biotinylated control peptide A2E-11/HLA-A*02:01 monomer
Method: as §1

Q: Does B1 bind?
A: Result: no binding

Q: Does B2 bind?
A: Result: no binding

Q: Does B3 bind?
A: Result: no binding

These binders were tested against T6, Bio-P19 member A2E-14 (chain 2: C-terminal BirA substrate peptide (BSP), enzymatically biotinylated; its letters are not printed in the patent and it is left out) (assay: phage ELISA, streptavidin plate, anti-M13-HRP).
T6 construct: also called biotinylated control peptide A2E-14/HLA-A*02:01 monomer
Method: as §1

Q: Does B1 bind?
A: Result: no binding

Q: Does B2 bind?
A: Result: no binding

Q: Does B3 bind?
A: Result: no binding

The binders below were run against T7, Bio-P19 member A2E-15 (chain 2: C-terminal BirA substrate peptide (BSP), enzymatically biotinylated; its letters are not printed in the patent and it is left out) (assay: phage ELISA, streptavidin plate, anti-M13-HRP).
T7 construct: also called biotinylated control peptide A2E-15/HLA-A*02:01 monomer
Method: as §1

Q: Does B1 bind?
A: Result: no binding

Q: Does B2 bind?
A: Result: no binding

Q: Does B3 bind?
A: Result: no binding

These binders were tested against T8, Bio-P19 member A2E-1 (chain 2: C-terminal BirA substrate peptide (BSP), enzymatically biotinylated; its letters are not printed in the patent and it is left out) (assay: phage ELISA, streptavidin plate, anti-M13-HRP).
T8 construct: also called biotinylated control peptide A2E-1/HLA-A*02:01 monomer
Method: as §1

Q: Does B1 bind?
A: Result: no binding

Q: Does B2 bind?
A: Result: no binding

Q: Does B3 bind?
A: Result: no binding

Each binder was assayed against T9, Bio-P19 member A2E-4 (chain 2 carries a C-terminal BirA substrate peptide (BSP), enzymatically biotinylated; the BSP letters are not given in the patent and are left out) (assay: phage ELISA, streptavidin plate, anti-M13-HRP).
T9 construct: also called biotinylated control peptide A2E-4/HLA-A*02:01 monomer
Method: as §1

Q: Does B1 bind?
A: Result: no binding

Q: Does B2 bind?
A: Result: no binding

Q: Does B3 bind?
A: Result: no binding

What follows are binders tested against T10, Bio-P19 member A2E-7 (chain 2 (heavy): C-terminal BirA substrate peptide, biotinylated there by BirA; tag letters not given, left out) (assay: phage ELISA, streptavidin plate, anti-M13-HRP).
T10 construct: also called biotinylated control peptide A2E-7/HLA-A*02:01 monomer; not shown: BirA substrate peptide (BSP) tag at the C-terminus of the heavy chain
Method: as §1

Q: Does B1 bind?
A: Result: no binding

Q: Does B2 bind?
A: Result: no binding

Q: Does B3 bind?
A: Result: no binding

The binders below were run against T11, Bio-P19 member A2E-9 (chain 2 (heavy): C-terminal BirA substrate peptide, biotinylated there by BirA; tag letters not given, left out) (assay: phage ELISA, streptavidin plate, anti-M13-HRP).
T11 construct: also called biotinylated control peptide A2E-9/HLA-A*02:01 monomer; not shown: BirA substrate peptide (BSP) tag at the C-terminus of the heavy chain
Method: as §1

Q: Does B1 bind?
A: Result: no binding

Q: Does B2 bind?
A: Result: no binding

Q: Does B3 bind?
A: Result: no binding

These binders were tested against T12, Bio-P19 member A2E-16 (chain 2: C-terminal BirA substrate peptide (BSP), enzymatically biotinylated; its letters are not printed in the patent and it is left out) (assay: phage ELISA, streptavidin plate, anti-M13-HRP).
T12 construct: also called biotinylated control peptide A2E-16/HLA-A*02:01 monomer
Method: as §1

Q: Does B1 bind?
A: Result: no binding

Q: Does B2 bind?
A: Result: no binding

Q: Does B3 bind?
A: Result: no binding

What follows are binders tested against T13, Bio-P19 member A2E-21 (chain 2 carries a C-terminal BirA substrate peptide (BSP), enzymatically biotinylated; the BSP letters are not given in the patent and are left out) (assay: phage ELISA, streptavidin plate, anti-M13-HRP).
T13 construct: also called biotinylated control peptide A2E-21/HLA-A*02:01 monomer
Method: as §1

Q: Does B1 bind?
A: Result: no binding

Q: Does B2 bind?
A: Result: no binding

Q: Does B3 bind?
A: Result: no binding

These binders were tested against T14, Bio-P19 member A2E-10 (chain 2: C-terminal BirA substrate peptide (BSP), enzymatically biotinylated; its letters are not printed in the patent and it is left out) (assay: phage ELISA, streptavidin plate, anti-M13-HRP).
T14 construct: also called biotinylated control peptide A2E-10/HLA-A*02:01 monomer
Method: as §1

Q: Does B1 bind?
A: Result: no binding

Q: Does B2 bind?
A: Result: no binding

Q: Does B3 bind?
A: Result: no binding

The binders below were run against T15, Bio-P19 member A2E-17 (chain 2: C-terminal BirA substrate peptide (BSP), enzymatically biotinylated; its letters are not printed in the patent and it is left out) (assay: phage ELISA, streptavidin plate, anti-M13-HRP).
T15 construct: also called biotinylated control peptide A2E-17/HLA-A*02:01 monomer
Method: as §1

Q: Does B1 bind?
A: Result: no binding

Q: Does B2 bind?
A: Result: no binding

Q: Does B3 bind?
A: Result: no binding

These binders were tested against T16, Bio-P19 member A2E-5 (chain 2 carries a C-terminal BirA substrate peptide (BSP), enzymatically biotinylated; the BSP letters are not given in the patent and are left out) (assay: phage ELISA, streptavidin plate, anti-M13-HRP).
T16 construct: also called biotinylated control peptide A2E-5/HLA-A*02:01 monomer
Method: as §1

Q: Does B1 bind?
A: Result: no binding

Q: Does B2 bind?
A: Result: no binding

Q: Does B3 bind?
A: Result: no binding

These binders were tested against T17, HLA-A*02:01 on T2 cells with no peptide loaded (human) (assay: flow cytometry, phage on T2 cells, anti-M13 + R-PE anti-mouse IgG).
T17 construct: TAP-deficient T2 cells, no peptide loaded from outside; also called T2 cells without peptide loading
Method: as §1

Q: Does B1 bind?
A: Result: no binding

Q: Does B2 bind?
A: Result: no binding

Q: Does B3 bind?
A: Result: no binding

From US20200087400A1 (EUREKA THERAPEUTICS, published 2020)
